Test results from patent US20020088017A1, “Adenosine deaminase deficient transgenic mice and methods for the use thereof” (Board of Regents, The University of Texas System, priority 1999, published 2002).

Experiments:
ADA deficient mice [1] = assay: PEGADA enzyme therapy of ADA deficient mice: respiratory status and survival; assay type: in vivo
Text: The inventors contemplate that PEGADA treatments may be chronic or acute. In preferred chromic treatments a constant level of PEGADA is maintained in the mouse at concentrations of 150 to 300 U/Kg. In preferred acute treatments, a single dose of PEGADA (300 U/Kg) is given.
For chronic treatment of the mice of the present invention, litters are given an intramuscular injection of PEGADA at four days of postnatal file. The initial dose of PEGADA given is approximately 300 U/Kg body weight, where U (unit) is defined as 1 μmole adenosine converted to inosine per minute. this dose is within an order of magnitude of that given to treat ADA deficient humans. Mice were treated every four days with a dose of 150 to 300 U/Kg.
For acute treatment of the mice of the present invention, mice are injected intramuscularly once on postnatal day 18 with 300 U/kg PEGADA.
(§1) PEGADA, also known as ADAGEN, was obtained through collaboration with Enzon Inc. (Piscataway, N.J.). Control or ADA deficient mice were lightly anesthetized and injected intramuscularly with 10 microlitetrs of PEGADA corresponding to approximately 2.5 Units of ADA. […] Levels of ADA enzyme activity in tissues was measured using zymogram analysis according to established procedures (Blackburn et al., 1998). This procedure visualizes enzyme activity on non-denaturing agarose gels (Blackburn et al., 1998).
Polyethylene glycol modified ADA (PEGADA) enzyme therapy is a lifesaving strategy used to treat ADA deficient humans (Hershfield et al., 1993). […] The inventors treated ADA deficient mice with intramuscular injections of PEGADA (ENZON, Inc.; Piscataway, N.J.) in an attempt to modulate the respiratory distress seen. Mice were treated intramuscularly with 300 units of PEGADA. […] Even more striking was the observation that PEGADA could reverse the phenotype of an ADA deficient animal after its onset. ADA deficient animals were allowed to develop severe lung inflammation and damage (day 17), and were then treated with PEGADA.

ADA deficient mice [2] = assay: Cellular differentials in bronchial alveolar lavage fluid (BALF) after PEGADA; assay type: in vivo
Protocol: FIG. 5A and FIG. 5B. Reversible lung eosinophilia and lung adenosine levels in ADA deficient mice treated with PEGADA. FIG. 5A, Total cellular differentials of cells collected from BALF of 18-day old control mice (n=19), ADA deficient mice (n=12) and ADA deficient mice treated with PEGADA and examined 72 hours later (n=5). Differentials were determined by counting 200 cells from BALF cytospins of each sample, and multiplying the percentage of each cell type found by the total number of cells in the BALF. Mean values are given as total cells (S.E.M.). FIG. 5B, Adenosine levels were quantitated in the lungs of 18-day old control mice (n=5), ADA deficient mice (n=4), and ADA deficient mice treated with PEGADA and examined 72 hours later (n=4). Mean values are given as nanomoles adenosine per mg protein±S.E.M.
Mice were anesthetized with avertin and the trachea exposed using blunt dissection. After securing a blunted 21-gauge needle into the trachea, the lungs were lavaged 5 times with 0.25 ml PBS. Lavages from individual animals were pooled and on average 0.95 to 1 ml of lavage fluid was recovered. Samples were centriflged at 2,500 rpm for 5 min to recover cells. Supernatant from these spins were collected and stored at −70 degrees C. for the analysis of cytokines. Cells were resuspended in 200 microliter PBS, an aliquot counted using a hemocytometer and another aliquot cytospun onto microscope slides where cells were stained with Diff-Quick (Dade) for cellular differentials. […] cells per sample were identified and counted under oil immersion.
PEGADA, also known as ADAGEN, was obtained through collaboration with Enzon Inc. (Piscataway, N.J.). […] Levels of ADA enzyme activity in tissues was measured using zymogram analysis according to established procedures (Blackburn et al., 1998). […]
(§2) Cell populations were monitored in BALF collected from ADA deficient mice 72 hours following treatment with PEGADA (FIG. 5A), in order to determine what effect PEGADA treatment had on lung inflammation. […]

ADA deficient mice [3] = assay: ELISA of serum IgE and BALF cytokines after PEGADA; assay type: in vivo; settings: PEGADA enzyme therapy
Protocol: IFNg, IL-4 and IL-5 levels in BALF were determined using specific murine OptiEA ELISA kits from Pharmagen according to manufactures instructions. For the analysis of IgE levels, blood was collected from the heart of anesthetized mice and the serum separated by centrifugation of samples at 3,000 rpm for 10 min a 4 degrees C. A murine OptiEA ELISA kit from Pharmagen was utilized to quantitate serum IgE levels. Values were read and quantitated at linerarity using a MRX II plate reader equipped with Revelation software (Dynex Technologies).
PEGADA, also known as ADAGEN, was obtained through collaboration with Enzon Inc. (Piscataway, N.J.). Control or ADA deficient mice were lightly anesthetized and injected intramuscularly with 10 microlitetrs of PEGADA corresponding to approximately 2.5 Units of ADA. Injections were given either chronically every 4 days starting at postnatal day 4, or acutely, as one injection on postnatal day 18. Levels of ADA enzyme activity in tissues was measured using zymogram analysis according to established procedures (Blackburn et al., 1998). This procedure visualizes enzyme activity on non-denaturing agarose gels (Blackburn et al., 1998).
as §2

[4] = test system: adenosine in the lungs of ADA deficient mice; assay: Quantification of adenosine in lungs (reversed phase HPLC) after PEGADA; assay type: in vivo
Protocol: FIG. 5A and FIG. 5B. Reversible lung eosinophilia and lung adenosine levels in ADA deficient mice treated with PEGADA. FIG. […] Differentials were determined by counting 200 cells from BALF cytospins of each sample, and multiplying the percentage of each cell type found by the total number of cells in the BALF. Mean values are given as total cells (S.E.M.). FIG. […] Mean values are given as nanomoles adenosine per mg protein±S.E.M.
as §1, with “This procedure visualizes enzyme activity on non-denaturing agarose gels (Blackburn et al., 1998).” left out
Mice were anesthetized with avertin, the thoracic cavity exposed, and the lungs were removed and frozen rapidly in liquid nitrogen to prevent metabolism of adenine nucleotides and nucleosides. Adenine nucleosides were extracted from frozen lungs using 0.4 N perchloric acid as described (Knudsen et al., 1992), and adenosine was separated and quantitated using reversed phase HPLC according to established procedures (Knudsen et al., 1992). […]

ADA deficient humans = settings: weekly intramuscular injection; cited from earlier work
[5] = weekly intramuscular injections of PEGADA from birth
[6] = 72 hours following treatment with PEGADA

B1: PEGADA: ADA polypeptides conjugated to polyethylene glycol; also known as ADAGEN, obtained from Enzon Inc. (protein, UniProt P56658 2-363, looked up)
Adenosine deaminase: AQTPAFNKPKVELHVHLDGAIKPETILYYGRKRGIALPADTPEELQNIIGMDKPLSLPEFLAKFDYYMPAIAGCREAVKRIAYEFVEMKAKDGVVYVEVRYSPHLLANSKVEPIPWNQAEGDLTPDEVVSLVNQGLQEGERDFGVKVRSILCCMRHQPSWSSEVVELCKKYREQTVVAIDLAGDETIEGSSLFPGHVKAYAEAVKSGVHRTVHAGEVGSANVVKEAVDTLKTERLGHGYHTLEDATLYNRLRQENMHFEVCPWSSYLTGAWKPDTEHPVVRFKNDQVNYSLNTDDPLIFKSTLDTDYQMTKNEMGFTEEEFKRLNINAAKSSFLPEDEKKELLDLLYKAYGMPSPASAEQCL
modifications: PEG conjugate (pegademase)
rescue of ADA deficient mice that without treatment die by three weeks of age (ADA deficient mice [1]; chronic treatment, intramuscular, approx. 300 U/Kg at postnatal day 4, then every four days 150 to 300 U/Kg): sufficient to rescue ADA deficient mice | recovery and survival (ADA deficient mice [1]; treated after onset of severe lung inflammation and damage (day 17)): recovered and survived as long as they were maintained on PEGADA | respiratory status (ADA deficient mice [1]; treated after onset of severe lung inflammation and damage (day 17), within 24 to 48 hours): noticeably improved | development of pulmonary problems (ADA deficient mice [1]; [5]): never develop pulmonary problems | survival (ADA deficient mice [1]; [5]): survive as long as the animals are maintained on PEGADA | outcome when PEGADA therapy was stopped (ADA deficient mice [1]; withdrawal of PEGADA therapy): rapidly showed signs of pulmonary insufficiency and died within a week | alveolar macrophages in BALF (ADA deficient mice [2]; [6]): remained elevated | number of eosinophils in BALF (ADA deficient mice [2]; [6]): greatly reduced | number of eosinophils found in the BALs (ADA deficient mice [2]; treatment with PEGADA, as stated in Example 9): decrease in the number of eosinophils | levels of BALF cytokines (ADA deficient mice [3]): no effect | levels of serum IgE (ADA deficient mice [3]): no effect | accumulation of adenosine in the lung [4]: prevents the accumulation of adenosine in the lung | adenosine levels in ADA deficient lungs ([4]; 72 hrs following treatment with PEGADA, control < 0.2, untreated ADA deficient 6.3 nmoles/mg protein): lowered to near control levels | accumulation of ADA substrates in ADA deficient humans (ADA deficient humans): prevents the accumulation of ADA substrates
